From patent US20250051443A1 (NATIONAL RESEARCH COUNCIL OF CANADA, published 2025) come the findings set out here.

This experiment concerns the target human CD3 (human, UniProt P07766 23-207; P09693 23-182; P04234 22-171). The experiment is described as follows: flow cytometry, negative control on CD3+ Jurkat cells.

Mouse IgG (antibody) came in with an MFI of 34 MFI.
